Data set [1] concerns HeLa Kyoto. The experiment in a line: thermal stability score vs G1/S (z-score of summed log2 fold changes over temperatures); higher = more thermally stable than in G1/S.
Data set [2] concerns HeLa Kyoto. The data set can be described thus: solubility in G1/S (NP-40 vs SDS abundance) (log2 ratio); higher = more soluble. The settings on record: cell cycle stage: G1/S.
The test system of data set [3] is HeLa Kyoto. The experiment in a line: melting temperature (median over replicates), in situ; higher = more thermally stable.
The subject of data set [4] is HeLa Kyoto. The data set can be described thus: solubility change mitosis vs G1/S (difference of NP-40 vs SDS log2 ratios) (log2 ratio difference); higher = more soluble in mitosis.
The mark [5] stands for this setting: cell cycle stage: early G1 (4.5 h after nocodazole release).
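For melting temperature (median over replicates), in situ in this document: HeLa Kyoto cells synchronized by double thymidine or nocodazole block, proteins quantified by TMT10plex mass spectrometry, three independent biological replicates.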
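For solubility change mitosis vs G1/S (difference of NP-40 vs SDS log2 ratios) in this document: synchronized HeLa Kyoto cells (double thymidine block for G1/S, nocodazole release for mitosis), protein amounts in NP-40 versus SDS lysates quantified by mass spectrometry, three biological replicates.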
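For solubility in G1/S (NP-40 vs SDS abundance) in this document: HeLa Kyoto cells arrested at G1/S by double thymidine block, proteins quantified by TMT10plex mass spectrometry in mild NP-40 versus SDS extracts, three biological replicates.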
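For thermal stability score vs G1/S (z-score of summed log2 fold changes over temperatures) in this document: synchronized HeLa Kyoto cells, proteins quantified by TMT10plex mass spectrometry, three biological replicates, mitosis taken 0.5 h after nocodazole release, G1/S directly after double thymidine block.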

Chain of DCK (chain, as listed by the source): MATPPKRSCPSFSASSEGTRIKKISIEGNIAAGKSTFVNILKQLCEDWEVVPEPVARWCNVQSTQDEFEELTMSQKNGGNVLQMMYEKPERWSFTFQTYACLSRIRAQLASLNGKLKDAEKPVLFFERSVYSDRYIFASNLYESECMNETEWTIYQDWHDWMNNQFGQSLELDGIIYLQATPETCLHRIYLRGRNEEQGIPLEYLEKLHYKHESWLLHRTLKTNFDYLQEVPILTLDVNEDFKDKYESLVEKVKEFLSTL

As to DCK, the thermal stability score turned out to be 2.05 in the data set with HeLa Kyoto [1] (setting [5]) and 2.37 with HeLa Kyoto [1] (cell cycle stage: mitosis). Also, the “solubility in G1/S (log2)” value in the data set on HeLa Kyoto [2] is 0.17. Besides, the values for the melting temperature in the data set on HeLa Kyoto [3] (cell cycle stage: G1/S) and in the data set with HeLa Kyoto [3] (cell cycle stage: mitosis) were 53.9 °C and 53.1 °C, respectively. For the same substance, the “solubility change mitosis (log2)” value in the data set with HeLa Kyoto [4] was -0.103.
With “MEPFSCDTFVALPPATVDNRIIFGKNSDRLYDEVQEVVYFPAVVHDNLGERLKCTYIEIDQVPETYAVVLSRPAWLWGAEMGANEHGVCIGNEAVWGREEVCDEEALLGMDLVRLGLERADTAEKALNVIVDLLEKYGQGGNCTEGRMVFSYHNSFLIADRNEAWILETAGKYWAAEKVQEGVRNISNQLSITTKIAREHPDMRNYAKRKGWWDGKKEFDFAAAYSYLDTAKMMTSSGRYCEGYKLLNKHKGNITFETMMEILRDKPSGINMEGEFLTTASMVSILPQDSSLPCIHFFTGTPDPERSVFKPFIFVPHISQLLDTSSPTFELEDLVKKKSHFKPDRRHPLYQKHQQALEVVNNNEEKAKIMLDNMRKLEKELFREMESILQNKHLDVEKIVNLFPQCTKDEIQIYQSNLSVKVSS [SCRN3]”, the thermal stability score with HeLa Kyoto [1] (setting [5]) was -0.926; with HeLa Kyoto [1] (cell cycle stage: mitosis), -0.525. In the data set with HeLa Kyoto [2], the “solubility in G1/S (log2)” value worked out at 0.271. Further, the melting temperature with HeLa Kyoto [3] (cell cycle stage: G1/S) turned out to be 52.9 °C; with HeLa Kyoto [3] (cell cycle stage: mitosis), 52.3 °C. In addition, the “solubility change mitosis (log2)” value in the data set on HeLa Kyoto [4] was -0.25.
Turning to “MAAPSGGWNGVGASLWAALLLGAVALRPAEAVSEPTTVAFDVRPGGVVHSFSHNVGPGDKYTCMFTYASQGGTNEQWQMSLGTSEDHQHFTCTIWRPQGKSYLYFTQFKAEVRGAEIEYAMAYSKAAFERESDVPLKTEEFEVTKTAVAHRPGAFKAELSKLVIVAKASRTEL [MYDGF]”, the thermal stability score in the data set on HeLa Kyoto [1] (setting [5]) stood at 2.14; in the data set on HeLa Kyoto [1] (cell cycle stage: mitosis), 0.789. In addition, in the data set on HeLa Kyoto [2], the “solubility in G1/S (log2)” value was 0.19. Moreover, the melting temperature in the data set with HeLa Kyoto [3] (cell cycle stage: G1/S) and in the data set on HeLa Kyoto [3] (cell cycle stage: mitosis) was 57.7 °C each time. For the same substance, the “solubility change mitosis (log2)” value with HeLa Kyoto [4] was -0.192.
“MEFYESAYFIVLIPSIVITVIFLFFWLFMKETLYDEVLAKQKREQKLIPTKTDKKKAEKKKNKKKEIQNGNLHESDSESVPRDFKLSDALAVEDDQVAPVPLNVVETSSSVRERKKKEKKQKPVLEEQVIKESDASKIPGKKVEPVPVTKQPTPPSEAAASKKKPGQKKSKNGSDDQDKKVETLMVPSKRQEALPLHQETKQESGSGKKKASSKKQKTENVFVDEPLIHATTYIPLMDNADSSPVVDKREVIDLLKPDQVEGIQKSGTKKLKTETDKENAEVKFKDFLLSLKTMMFSEDEALCVVDLLKEKSGVIQDALKKSSKGELTTLIHQLQEKDKLLAAVKEDAAATKDRCKQLTQEMMTEKERSNVVITRMKDRIGTLEKEHNVFQNKIHVSYQETQQMQMKFQQVREQMEAEIAHLKQENGILRDAVSNTTNQLESKQSAELNKLRQDYARLVNELTEKTGKLQQEEVQKKNAEQAATQLKVQLQEAERRWEEVQSYIRKRTAEHEAAQQDLQSKFVAKENEVQSLHSKLTDTLVSKQQLEQRLMQLMESEQKRVNKEESLQMQVQDILEQNEALKAQIQQFHSQIAAQTSASVLAEELHKVIAEKDKQIKQTEDSLASERDRLTSKEEELKDIQNMNFLLKAEVQKLQALANEQAAAAHELEKMQQSVYVKDDKIRLLEEQLQHEISNKMEEFKILNDQNKALKSEVQKLQTLVSEQPNKDVVEQMEKCIQEKDEKLKTVEELLETGLIQVATKEEELNAIRTENSSLTKEVQDLKAKQNDQVSFASLVEELKKVIHEKDGKIKSVEELLEAELLKVANKEKTVQDLKQEIKALKEEIGNVQLEKAQQLSITSKVQELQNLLKGKEEQMNTMKAVLEEKEKDLANTGKWLQDLQEENESLKAHVQEVAQHNLKEASSASQFEELEIVLKEKENELKRLEAMLKERESDLSSKTQLLQDVQDENKLFKSQIEQLKQQNYQQASSFPPHEELLKVISEREKEISGLWNELDSLKDAVEHQRKKNNDLREKNWEAMEALASTEKMLQDKVNKTSKERQQQVEAVELEAKEVLKKLFPKVSVPSNLSYGEWLHGFEKKAKECMAGTSGSEEVKVLEHKLKEADEMHTLLQLECEKYKSVLAETEGILQKLQRSVEQEENKWKVKVDESHKTIKQMQSSFTSSEQELERLRSENKDIENLRREREHLEMELEKAEMERSTYVTEVRELKDLLTELQKKLDDSYSEAVRQNEELNLLKAQLNETLTKLRTEQNERQKVAGDLHKAQQSLELIQSKIVKAAGDTTVIENSDVSPETESSEKETMSVSLNQTVTQLQQLLQAVNQQLTKEKEHYQVLE [KTN1]”: the thermal stability score in the data set with HeLa Kyoto [1] (setting [5]) is 5.06; in the data set on HeLa Kyoto [1] (cell cycle stage: mitosis) it was 7.49. For the same substance, the “solubility in G1/S (log2)” value with HeLa Kyoto [2] came to 0.422. Moreover, the melting temperature with HeLa Kyoto [3] (cell cycle stage: G1/S) was 50 °C; in the data set with HeLa Kyoto [3] (cell cycle stage: mitosis) it was 50.6 °C. For the same substance, in the data set on HeLa Kyoto [4], the “solubility change mitosis (log2)” value was 0.0644.
In the case of “MSSVQQQPPPPRRVTNVGSLLLTPQENESLFTFLGKKCVTMSSAVVQLYAADRNCMWSKKCSGVACLVKDNPQRSYFLRIFDIKDGKLLWEQELYNNFVYNSPRGYFHTFAGDTCQVALNFANEEEAKKFRKAVTDLLGRRQRKSEKRRDPPNGPNLPMATVDIKNPEITTNRFYGPQVNNISHTKEKKKGKAKKKRLTKADIGTPSNFQHIGHVGWDPNTGFDLNNLDPELKNLFDMCGISEAQLKDRETSKVIYDFIEKTGGVEAVKNELRRQAPPPPPPSRGGPPPPPPPPHNSGPPPPPARGRGAPPPPPSRAPTAAPPPPPPSRPSVAVPPPPPNRMYPPPPPALPSSAPSGPPPPPPSVLGVGPVAPPPPPPPPPPPGPPPPPGLPSDGDHQVPTTAGNKAALLDQIREGAQLKKVEQNSRPVSCSGRDALLDQIRQGIQLKSVADGQESTPPTPAPTSGIVGALMEVMQKRSKAIHSSDEDEDEDDEEDFEDDDEWED [WASL]”, the thermal stability score with HeLa Kyoto [1] (setting [5]) worked out at 0.0343; in the data set with HeLa Kyoto [1] (cell cycle stage: mitosis) it was 1.24. The “solubility in G1/S (log2)” value in the data set on HeLa Kyoto [2] turned out to be 0.303. In addition, the figures for the melting temperature with HeLa Kyoto [3] (cell cycle stage: G1/S) and in the data set with HeLa Kyoto [3] (cell cycle stage: mitosis) were 50.7 °C and 51.3 °C, respectively. Also, the “solubility change mitosis (log2)” value in the data set with HeLa Kyoto [4] is -0.121.
On to “MAAAGQLCLLYLSAGLLSRLGAAFNLDTREDNVIRKYGDPGSLFGFSLAMHWQLQPEDKRLLLVGAPRAEALPLQRANRTGGLYSCDITARGPCTRIEFDNDADPTSESKEDQWMGVTVQSQGPGGKVVTCAHRYEKRQHVNTKQESRDIFGRCYVLSQNLRIEDDMDGGDWSFCDGRLRGHEKFGSCQQGVAATFTKDFHYIVFGAPGTYNWKGIVRVEQKNNTFFDMNIFEDGPYEVGGETEHDESLVPVPANSYLGLLFLTSVSYTDPDQFVYKTRPPREQPDTFPDVMMNSYLGFSLDSGKGIVSKDEITFVSGAPRANHSGAVVLLKRDMKSAHLLPEHIFDGEGLASSFGYDVAVVDLNKDGWQDIVIGAPQYFDRDGEVGGAVYVYMNQQGRWNNVKPIRLNGTKDSMFGIAVKNIGDINQDGYPDIAVGAPYDDLGKVFIYHGSANGINTKPTQVLKGISPYFGYSIAGNMDLDRNSYPDVAVGSLSDSVTIFRSRPVINIQKTITVTPNRIDLRQKTACGAPSGICLQVKSCFEYTANPAGYNPSISIVGTLEAEKERRKSGLSSRVQFRNQGSEPKYTQELTLKRQKQKVCMEETLWLQDNIRDKLRPIPITASVEIQEPSSRRRVNSLPEVLPILNSDEPKTAHIDVHFLKEGCGDDNVCNSNLKLEYKFCTREGNQDKFSYLPIQKGVPELVLKDQKDIALEITVTNSPSNPRNPTKDGDDAHEAKLIATFPDTLTYSAYRELRAFPEKQLSCVANQNGSQADCELGNPFKRNSNVTFYLVLSTTEVTFDTPDLDINLKLETTSNQDNLAPITAKAKVVIELLLSVSGVAKPSQVYFGGTVVGEQAMKSEDEVGSLIEYEFRVINLGKPLTNLGTATLNIQWPKEISNGKWLLYLVKVESKGLEKVTCEPQKEINSLNLTESHNSRKKREITEKQIDDNRKFSLFAERKYQTLNCSVNVNCVNIRCPLRGLDSKASLILRSRLWNSTFLEEYSKLNYLDILMRAFIDVTAAAENIRLPNAGTQVRVTVFPSKTVAQYSGVPWWIILVAILAGILMLALLVFILWKCGFFKRSRYDDSVPRYHAVRIRKEEREIKDEKYIDNLEKKQWITKWNENESYS [ITGA6]”, for which the thermal stability score in the data set with HeLa Kyoto [1] (setting [5]) was -2.3; in the data set with HeLa Kyoto [1] (cell cycle stage: mitosis), -1.75. In addition, the “solubility in G1/S (log2)” value in the data set with HeLa Kyoto [2] was 0.154. In addition, the melting temperature in the data set with HeLa Kyoto [3] (cell cycle stage: G1/S) stood at 55.4 °C; with HeLa Kyoto [3] (cell cycle stage: mitosis), 55.6 °C. The “solubility change mitosis (log2)” value with HeLa Kyoto [4] was -0.116.

The values above are taken from the supplement of paper PMC5998384.
